Measured values published in US8436140B2, “Natriuretic peptide-mediated imaging of atherosclerotic plaque” (priority 2008, dated 2013).
Positions of bridges follow the written chain, without caps; N, C: chain ends. Residues, ends and D or L forms follow the SMILES beside them. *: point of attachment. DOTA = O=C(O)CN1CCN(CC(=O)O)CCN(CC(=O)*)CCN(CC(=O)O)CC1

How the values were obtained:
[1] = system: extracellular matrix proteins such as collagen and proteoglycans; experiment: 3T MRI of atherosclerotic lesion with plaque-targeting contrast agent; format: in vivo, rabbit; details: 0.5 μmol/kg, 1 h before scan, TP 1
Experimental: The presence of atherosclerotic lesions in the rabbits was confirmed by 3T MRI 1 hour after administration of a non-receptor specific plaque-targeting contrast agent ([…], 0.5 μmol/kg body weight, Schering AG, Germany). […] For scanning, the rabbit was placed supine into a plastic bed. Three micropipette tubes filled with 0.5 mL Gadofluorine M (Bayer Schering Pharma AG, Berlin) served as fiducial markers, and were taped into position on the bed. At the beginning of the PET study, these tubes were drained of the Gadofluorine by syringe, and refilled with 0.5 mL of ^64Cu to serve as the PET fiducials. These helped to “co-localize” the plaque regions between the two image modalities.
In this example, a MR T1 W coronal image of a typical atherosclerotic lesion in the femoral artery of a rabbit 4 weeks after air dessication-induced injury (TP 1) is shown (FIG. 6). Gadofluorine M (0.5 μmol/kg body weight) was given 1 h before the scan. […] MRI confirmed the presence of a thickened neointima in the injured vessel characteristic of the atherosclerotic-like plaques induced in this model.

[2] = in vivo; details: rabbit, iv, 20 MBq, total radioactivity
Experimental: The blood clearance studies were performed in normal rabbits (n=4) to evaluate the pharmacokinetics of tracer in vivo. About 20 MBq of ^64Cu-DOTA-C-ANF was injected intravenously into the left ear of rabbit, and blood sample (0.2 mL) was drawn from the contralateral ear over the period of 1 h (1 min, 3 min, 5 min, 10 min, 20 min, 40 min and 60 min). The activity of the blood samples were counted in gamma counter and presented in percent injected dose per gram (ID %/g). […] (FIG. 7). This tracer therefore is a highly sensitive means by which to detect a trace amount of ^64Cu-DOTA-C-ANF in the atherosclerotic animal model

SMILES	contrast agent at injured femoral artery (MR T1W image) [1]	contrast agent uptake in control artery (MR T1W image) [1]	tissue uptake at 1 min [2]	tissue uptake at 0.05 h [2]	tissue uptake at 1 h [2]
CC(C(=O)NCC(=O)NCCCC[C@H](NC(=O)CO[C@H]1O[C@H](CO)[C@@H](O)[C@H](O)[C@@H]1O)C(=O)N1CCN(S(=O)(=O)C(F)(F)C(F)(F)C(F)(F)C(F)(F)C(F)(F)C(F)(F)C(F)(F)C(F)(F)F)CC1)N1CCN(CC(=O)O)CCN(CC(=O)O)CCN(CC(=O)O)CC1 (some centres unmarked) [Gadofluorine M]	binding	weak uptake	–	–	–
CC[C@H](C)[C@@H]1NC(=O)[C@H](CCCNC(=N)N)NC(=O)[C@H](CC(=O)O)NC(=O)[C@H]([C@@H](C)CC)NC(=O)[C@H](CCCNC(=N)N)NC(=O)CNC(=O)CNC(=O)[C@H](Cc2ccccc2)NC(=O)[C@@H](NC(=O)[C@H](CO)NC(=O)[C@H](CO)NC(=O)[C@H](CCCNC(=N)N)NC(=O)CN2CCN(CC(=O)O)CCN(CC(=O)O)CCN(CC(=O)O)CC2)CSSC[C@@H](C(N)=O)NC(=O)[C@H](C)NC(=O)CNC1=O [^64Cu-DOTA-C-ANF, metal not drawn] ({DOTA}-RSSCFGGRIDRIGAC-NH2; disulfide 4-15)	–	–	0.22 %ID/g	0.1 %ID/g	0.02 %ID/g
